This note sets out measurements from publication PMC5703867, “Development of Novel Promiscuous Anti-Chemokine Peptibodies for Treating Autoimmunity and Inflammation” (Frontiers in Immunology, 2017).

The target in this assay is T1, CCL2 (human, UniProt P13500 24-99).
T1 construct: CCL2, human, recombinant; source: bought: PeproTech
Kind of assay: ELISA; chemokine coated on maxisorp plates (0.1-1.0 µg/ml in 0.1 M NaHCO3, pH 8.6), BSA block, biotinylated synthetic peptides in TBST-BSA for 45 min at RT, detected with HRP-streptavidin or AP-anti-biotin; fold binding at 10 and 100 ng/ml peptide. The settings on record: both partners purified. Background: An ELISA detects its analyte on a solid surface through an enzyme-linked reagent.

Where no end group is shown, it is not given here. The star is where a group is joined. Biotin = O=C1N[C@H]2[C@H](CS[C@H]2CCCCC(=O)*)N1

T1 sequence (P13500 24-99): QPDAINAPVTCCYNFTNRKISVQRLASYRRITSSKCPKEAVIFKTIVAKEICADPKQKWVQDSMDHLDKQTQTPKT

B1: BKT120 biotinylated synthetic peptide (peptide)
peptide: LDYPIPQTVLHHGGGSK(Biotin)G
modifications: also: biotin at C-terminus, format X12GGGSK-biotin-G
notes: BKT120 peptide; C-terminal tail of the linear peptide format X12GGGSK-biotin-G; also called BTK120; source: synthetic peptide (Weizmann Institute of Science)
For the molecule B1, the binding result was “binds”.

B2: BKT130 biotinylated synthetic peptide (peptide)
peptide: SIPSHSIHSAKAGGGSK(Biotin)G
modifications: also: biotin at C-terminus, format X12GGGSK-biotin-G
notes: BKT130 peptide; C-terminal tail of the linear peptide format X12GGGSK-biotin-G; also called BTK130; source: synthetic peptide (Weizmann Institute of Science)
Turning to B2, the binding result is recorded as “binds”.
